Data taken from patent US20240209078A1 (Amgen, published 2024).

Legend:
[1] = target: T1, human CDH3 (human, UniProt P22223 108-829); test: cell-based or functional assay
[2] = target: T1, human CDH3; test: cell-based or functional assay; remark: listed apart in the source
[3] = target: T1, human CDH3; test: cell-based affinity, flow cytometry on target-transfected CHO cells, nonlinear regression (one site - specific binding), mean of three measurements
Protocol: (§1) Cell-based affinity of CDH3 MSLN dual targeting antigen-binding molecules was determined by nonlinear regression (one site—specific binding) analysis. CHO cells expressing human CDH3, cyno CDH3, human MSLN or cyno MSLN were incubated with decreasing concentrations of CDH3 MSLN dual targeting antigen-binding molecules (12.5 nM on CDH3 cell lines, 800 nM on MSLN cell lines, step 1:2, 11 steps) for 16 h at 4° ° C. Bound CDH3 MSLN dual targeting antigen-binding molecules were detected with Alexa Fluor 488-conjugated AffiniPure Fab Fragment Goat Anti-Human IgG (H+L). Fixed cells were stained with DRAQ5, Far-Red Fluorescent Live-Cell Permeant DNA Dye and signals were detected by fluorescence cytometry. Respective equilibrium dissociation constant (Kd) values were calculated with the one site—specific binding evaluation tool of the GraphPad Prism software. Mean Kd values and affinity gaps were calculated with Microsoft Excel.
(§2) Cell-based affinities of CDH3 MSLN dual targeting antigen-binding molecules on target-transfected CHO cells were determined by nonlinear regression (one site - specific binding) analysis. Mean Kd values were calculated from three independent measurements. Affinity gaps were determined by dividing the cyno Kd by the human Kd.

[4] = target: T2, cyno MSLN (cyno); test: as above
T2 construct: whole, on cells; On transfected CHO cells; also called cy MSLN
Protocol: as §1, §2

[5] = target: T3, cyno CDH3 (cyno); test: as above
T3 construct: whole, on cells; On transfected CHO cells; also called cy CDH3
Protocol: as §1, §2

[6] = target: T4, human MSLN (mesothelin) (human, UniProt Q13421 37-598); test: cell-based or functional assay
[7] = target: T5, human CDH3 (Cadherin-3, P-Cadherin) (human, UniProt P22223 108-829); test: cell-based or functional assay
[8] = target: T4, human MSLN (mesothelin); test: cell-based or functional assay; remark: listed apart in the source
[9] = target: T5, human CDH3 (Cadherin-3, P-Cadherin); test: cell-based or functional assay; remark: listed apart in the source

| fold gap of column 2 (HCT 116 KO MSLN by Table 46) against double positive cells [1] [fold] | Kd [3] [pM] | Kd [4] [pM] | Kd [5] [pM] | Binder | EC50 (cytotoxicity) on double positive cells; column head printed 'EC50 CHO hu CDH3 (+) & MSLN (+)'; value is that of HCT 116 wt in Table 46 [1] [pM] | EC50 (cytotoxicity); column head printed 'EC50 CHO hu MSLN (+)', table title HCT 116; value is that of HCT 116 KO MSLN in Table 46 [1] [pM] | EC50 on HCT 116 KO MSLN (cytotoxicity; cells CDH3+, MSLN-) [2] [pM] | EC50 on HCT 116 wt (cytotoxicity; cells CDH3+, MSLN+) [2] [pM] | cytotoxicity EC50, HCT 116 KO CDH3 cells [6] [pM] | cytotoxicity EC50, HCT 116 KO MSLN cells [7] [pM] | cytotoxicity EC50, GSU KO CDH3 cells [8] [pM] | cytotoxicity EC50, GSU KO MSLN cells [9] [pM] |
| --- | --- | --- | --- | --- | --- | --- | --- | --- | --- | --- | --- | --- |
| 122 | 160 | 51400 | 190 | CH3 15-E11 CC × I2L × G4 × scFc × G4 × MS 15-B12 CC × I2L_GQ (bispecific antibody, Single chain: CDH3 scFv - CD3 scFv (I2L) - scFc - MSLN scFv - CD3 scFv (I2L)) QVQLVQSGAEVKKPGASVKVSCKASGYTFTNYWMNWVRQAPGQCLEWMGNIAYGVKGTNYNQKFQGRVTMTVDTSSSTAYMELSRLRSDDTAVYYCATRYFYVMDYWGQGTLVTVSSGGGGQGGGGQGGGGQDIQMTQSPSSLSASVGDRVTITCRASQDISNYLNWYQQKPGKVPKLLIYYTSRLHSGVPSRFSGSGSGTDFTLTISSLQPEDVATYYCVQYAQFPLTFGCGTKVEIKSGGGGQEVQLVESGGGLVQPGGSLKLSCAASGFTFNKYAMNWVRQAPGKGMEWVARIRSKYNNYATYYADAVKDRFTISRDDSKNTLYLQMNNLKTEDTAVYYCVRAGNFGSSYISYFAYWGQGTLVTVSSGGGGQGGGGQGGGGQQTVVTQEPSLTVSPGGTVTITCGSSTGAVTSGNYPNWIQKKPGQAPRGLIGGTKFLAPGTPARFSGSLEGGKAALTLSGVQPEDEAEYYCVLYYSNRWVFGSGTKLTVLGGGGCPPCPAPELLGGPSVFLFPPKPKDTLMISRTPEVTCVVVDVSHEEPEVKFNWYVDGVEVHNAKTKPCEEQYGSTYRCVSVLTVLHQDWLNGKEYKCKVSNKALPAPIEKTISKAKGQPREPQVYTLPPSREEMTKNQVSLTCLVKGFYPSDIAVEWESNGQPENNYKTTPPVLDSDGSFFLYSKLTVDKSRWQQGNVFSCSVMHEALHNHYTQKSLSLSPGKGGGGQGGGGQGGGGQGGGGQGGGGQGGGGQCPPCPAPELLGGPSVFLFPPKPKDTLMISRTPEVTCVVVDVSHEEPEVKFNWYVDGVEVHNAKTKPCEEQYGSTYRCVSVLTVLHQDWLNGKEYKCKVSNKALPAPIEKTISKAKGQPREPQVYTLPPSREEMTKNQVSLTCLVKGFYPSDIAVEWESNGQPENNYKTTPPVLDSDGSFFLYSKLTVDKSRWQQGNVFSCSVMHEALHNHYTQKSLSLSPGKGGGGQVQLQESGPGLVKPSETLSLTCTVSGGSISSSSYFWGWIRQPPGKCLEWIGNIYYSGSSNYNPSLKSRVTISVDTSKNQFSLKLSSVTAADTAVYYCARLPRGDRDAFDIWGQGTMVTVSSGGGGQGGGGQGGGGQDIVMTQSPSSLSASVGDRVTITCRASQGISNYLAWYQQKPGKVPKLLIYAASTLQSGVPSRFSGSGSGTDFTLTISSLQPEDFATYYCQQSYSTPFTFGCGTKVEIKSGGGGQEVQLVESGGGLVQPGGSLKLSCAASGFTFNKYAMNWVRQAPGKGMEWVARIRSKYNNYATYYADAVKDRFTISRDDSKNTLYLQMNNLKTEDTAVYYCVRAGNFGSSYISYFAYWGQGTLVTVSSGGGGQGGGGQGGGGQQTVVTQEPSLTVSPGGTVTITCGSSTGAVTSGNYPNWIQKKPGQAPRGLIGGTKFLAPGTPARFSGSLEGGKAALTLSGVQPEDEAEYYCVLYYSNRWVFGSGTKLTVL | 0.071 | 8.7 | 8.7 | 0.07 | – | – | – | – |
| – | 510 | 50300 | 570 | CH3 15-E11_1_VAG_CC × I2L × G4 × scFc × G4 × MS 15-B12 CC × I2L clipopt_DI (bispecific antibody, Single chain) QVQLVQSGAEVKKPGASVKVSCKASGYTFTNYWMNWVRQAPGQCLEWMGNIAYGVAGTNYNQKFQGRVTMTVDTSSSTAYMELSRLRSDDTAVYYCATRYFYVMDYWGQGTLVTVSSGGGGQGGGGQGGGGQDIQMTQSPSSLSASVGDRVTITCRASQDISNYLNWYQQKPGKVPKLLIYYTSRLHSGVPSRFSGSGSGTDFTLTISSLQPEDVATYYCVQYAQFPLTFGCGTKVEIKSGGGGQEVQLVESGGGLVQPGGSLKLSCAASGFTFNKYAMNWVRQAPGKGMEWVARIRSKYNNYATYYADAVKDRFTISRDDSKNTLYLQMNNLKTEDTAVYYCVRAGNFGSSYISYFAYWGQGTLVTVSSGGGGQGGGGQGGGGQQTVVTQEPSLTVSPGGTVTITCGSSTGAVTSGNYPNWIQKKPGQAPRGLIGGTKFLAPGTPARFSGSLEGGKAALTLSGVQPEDEAEYYCVLYYSNRWVFGSGTKLTVLGGGGCPPCPAPELLGGPSVFLFPPKPKDTLMISRTPEVTCVVVDVSHEEPEVKFNWYVDGVEVHNAKTKPCEEQYGSTYRCVSVLTVLHQDWLNGKEYKCKVSNKALPAPIEKTISKAKGQPREPQVYTLPPSREEMTKNQVSLTCLVKGFYPSDIAVEWESNGQPENNYKTTPPVLDSDGSFFLYSKLTVDKSRWQQGNVFSCSVMHEALHNHYTQKSLSLSPGKGGGGQGGGGQGGGGQGGGGQGGGGQGGGGQCPPCPAPELLGGPSVFLFPPKPKDTLMISRTPEVTCVVVDVSHEEPEVKFNWYVDGVEVHNAKTKPCEEQYGSTYRCVSVLTVLHQDWLNGKEYKCKVSNKALPAPIEKTISKAKGQPREPQVYTLPPSREEMTKNQVSLTCLVKGFYPSDIAVEWESNGQPENNYKTTPPVLDSDGSFFLYSKLTVDKSRWQQGNVFSCSVMHEALHNHYTQKSLSLSPGKGGGGQVQLQESGPGLVKPSETLSLTCTVSGGSISSSSYFWGWIRQPPGKCLEWIGNIYYSGSSNYNPSLKSRVTISVDTSKNQFSLKLSSVTAADTAVYYCARLPRGDRDAFDIWGQGTMVTVSSGGGGQGGGGQGGGGQDIVMTQSPSSLSASVGDRVTITCRASQGISNYLAWYQQKPGKVPKLLIYAASTLQSGVPSRFSGSGSGTDFTLTISSLQPEDFATYYCQQSYSTPFTFGCGTKVEIKSGGGGQEVQLVESGGGLVQPGGSLKLSCAASGFTFNKYAMNWVRQAPGKGMEWVARIRSKYNNYATYYADAVKDRFTISRDDSKNTLYLQMNNLKTEDTAVYYCVRAGNFGSSYISYFAYWGQGTLVTVSSGGGGQGGGGQGGGGQQTVVTQEPSLTVSPGGTVTITCGSSTGAVTSGNYPNWIQKKPGQAPRGLIGGTKFLAPGTPARFSGSLEGGKAALTLSGVQPEDEAEYYCVLYYSNRWVFGSGTKLTVL | – | – | – | – | – | – | – | – |
| – | – | – | – | MS 15-B12 CC × I2L × G4 × scFc × G4 × CH3 15-E11 CC × I2L_GQ (bispecific antibody) QVQLQESGPGLVKPSETLSLTCTVSGGSISSSSYFWGWIRQPPGKCLEWIGNIYYSGSSNYNPSLKSRVTISVDTSKNQFSLKLSSVTAADTAVYYCARLPRGDRDAFDIWGQGTMVTVSSGGGGQGGGGQGGGGQDIVMTQSPSSLSASVGDRVTITCRASQGISNYLAWYQQKPGKVPKLLIYAASTLQSGVPSRFSGSGSGTDFTLTISSLQPEDFATYYCQQSYSTPFTFGCGTKVEIKSGGGGQEVQLVESGGGLVQPGGSLKLSCAASGFTFNKYAMNWVRQAPGKGMEWVARIRSKYNNYATYYADAVKDRFTISRDDSKNTLYLQMNNLKTEDTAVYYCVRAGNFGSSYISYFAYWGQGTLVTVSSGGGGQGGGGQGGGGQQTVVTQEPSLTVSPGGTVTITCGSSTGAVTSGNYPNWIQKKPGQAPRGLIGGTKFLAPGTPARFSGSLEGGKAALTLSGVQPEDEAEYYCVLYYSNRWVFGSGTKLTVLGGGGCPPCPAPELLGGPSVFLFPPKPKDTLMISRTPEVTCVVVDVSHEEPEVKFNWYVDGVEVHNAKTKPCEEQYGSTYRCVSVLTVLHQDWLNGKEYKCKVSNKALPAPIEKTISKAKGQPREPQVYTLPPSREEMTKNQVSLTCLVKGFYPSDIAVEWESNGQPENNYKTTPPVLDSDGSFFLYSKLTVDKSRWQQGNVFSCSVMHEALHNHYTQKSLSLSPGKGGGGQGGGGQGGGGQGGGGQGGGGQGGGGQCPPCPAPELLGGPSVFLFPPKPKDTLMISRTPEVTCVVVDVSHEEPEVKFNWYVDGVEVHNAKTKPCEEQYGSTYRCVSVLTVLHQDWLNGKEYKCKVSNKALPAPIEKTISKAKGQPREPQVYTLPPSREEMTKNQVSLTCLVKGFYPSDIAVEWESNGQPENNYKTTPPVLDSDGSFFLYSKLTVDKSRWQQGNVFSCSVMHEALHNHYTQKSLSLSPGKGGGGQVQLVQSGAEVKKPGASVKVSCKASGYTFTNYWMNWVRQAPGQCLEWMGNIAYGVKGTNYNQKFQGRVTMTVDTSSSTAYMELSRLRSDDTAVYYCATRYFYVMDYWGQGTLVTVSSGGGGQGGGGQGGGGQDIQMTQSPSSLSASVGDRVTITCRASQDISNYLNWYQQKPGKVPKLLIYYTSRLHSGVPSRFSGSGSGTDFTLTISSLQPEDVATYYCVQYAQFPLTFGCGTKVEIKSGGGGQEVQLVESGGGLVQPGGSLKLSCAASGFTFNKYAMNWVRQAPGKGMEWVARIRSKYNNYATYYADAVKDRFTISRDDSKNTLYLQMNNLKTEDTAVYYCVRAGNFGSSYISYFAYWGQGTLVTVSSGGGGQGGGGQGGGGQQTVVTQEPSLTVSPGGTVTITCGSSTGAVTSGNYPNWIQKKPGQAPRGLIGGTKFLAPGTPARFSGSLEGGKAALTLSGVQPEDEAEYYCVLYYSNRWVFGSGTKLTVL | – | – | – | – | 44.5 | 1 | 115 | 502 |
